Measured values as given in the DeepSol protein solubility set.

assay: soluble on expression in E. coli; label from the status in PepcDB or PDB records

Soluble on expression in E. coli, not soluble:
MGSDKIHHHHHHMVKLFREKKDMGSPKIQNFKRQTVLHKGQRTRLPATYIAPEDVSIWDIIRPNLGKDFSRFTVPVFMNEPLSFLQRLSENVQYNYLLEKAAKCSDDMERIEFYEFRFFFNWKKLKHQMKLSNSAHKTGFTFANSINYVAAFALATVSANHKRLSKPFNPLLLETFELERNGVRFLAEQVSHHPPISAVYAESDEFTVEGTVEPTLGFWMTKLLANPHAHLKLTFKKTGETYSWSAPKCAIYNVIMGKMYMNFTSHMKIESSGTYDAVFSFDNKGYYNHKGGDVHVEGHIFEGKNKIKALYGNWTLFLASCDNEDFKHHRKEYLRMFNETVSEKDQGPVVPGSKILWVSNQIPKLFDDQFHFTNFTLSLNEMYPGMSDTVAPTDSRRRKDMKALEDGKNDEAEEFKHKYEEEQRERRTTKTGDVPMWFAKNDEGHWAYKGGYWDRDYSNCLELFESLENSSTNSSNSSISSVD, MGSDKIHHHHHHMVKRKNVAVIGGGVSGLAAAKAFDERGHRVTGFERSHDFGGVWELSRSYPDVQTQSPKDLYCYTDLPMPDAYPEWPKGPQVHAYLHSYANKHNLPRLFQLNTNILSMDRRADGQPGWTLTIEAAGRVRKEDFDFVAICTGQFSDKNILTHPGQEAFVAGGGEVIHSSEYTDSEMARGKHVVVLGGSKSATDIVVNAARSGAKSVTMVYRENVWRVPYFVGGINFKRLLYMRAQEQQFNQWGKSPLQRVIAALLKPLVWANFRGLETLLKAQLGLKKWNMVPDTPIEKEASCSLPIVTPGLFESFRDGTVKPIQGTYDRYEDGHVVLTTGDRVPCDLSVLAVGWKLGIPYLAQEYRDKLIEADGQYRVYRLAVNPDLPDMGFVGFNSSFCTILSAEMIANWLVRFADGQLAHQPSAQEMNANIEMMLNWRRKERPAAQVYGGLCSAPFHFKHFDELLADMGAGVRKRANPLAEQFSYPDARAYGRFLASTPQYQAG, MGSDKIHHHHHHMVKTSQLPAVDRTVPLEQISQFAEKVTIFTDELRETILAPRPRKTAPIFKTGEIAEMCNISHSQVQYLATKGDGELPPGTAAGTGRTRTFTLQEARTWVQKVSDIYQTPLVTGTREPEGKIIITAQLKGGSAKTTTTMCLAQGLTLRGRKVLVVDLDPQASLSELCGLYAEKDVSPEDSVLPYIYDQQIEGGLQSRVQSTYWDGLDLIPAHTELIGAEFHLPAMQKIKPGFRFWTVLREGLEPLRKHYDYILMDTSPSLSYMNLNALLAADAMVMPMVPENLDFISSLSFWRLFSDVSKSFIKYEADKKYDFVSLLLSRVDYGRTSSAPIVRAWAQSAYESWLHSIEVPASSVMSTGALAFSTVFDVSSTHSAAKSLQRVRQPIVDYCRWLDEIYAEKWRSAQ, MGSDKIHHHHHHMVLLETNRLRLQTIDIPLLDAASKQDHQAIKELGYETNGEWPNSDFFEAIPYFREILVKNNGTKGFDSWIIVKKDNYEIVGGTGFLGDPDENGMIEIGFATNKSHRRKGYCVEAAQKLINWALSRETVSRITARCEHDNLGSQKTLEKLGFILNHKSAEYKHWIYVTK, MGSDKIHHHHHHMVMLKMKKTIAYYRSSTDLQENSIEMQQIKAFEYSMKKRITIDEEYVDKDVSARKKTLMQRPGMNKLMKEIEAGVVGSIIVYKRDRFARKLQEHMQLYRLFQEYDIDVYFSSDSEVQMNYSPIGEYIEAILGSICENEGSLIAQRIQETKIAKFLSGKYAGNLPYGYEKGEPNADGQVNILQVSHEIEVVKEIYNALLNKECKSIQELCNDLNEKYKTEETKDWDQSKVVNIVKNPIYHGLRVMNFGSKEYKKAYKNIKVVEKTDWDIANEQLDKMIVKRETGKETIQFLLENILYCHECQKPLIAKKRMRSYQDYYIYECKEHDVCVEAGYIEVEILKHAKTFFHRLLDENFNELYERSTYQNVRKIKKLIGSQEMIIKGVTKKVGKLIDQWLNCQKMQREHEGNDCAKCQSNQHIGEIKEANEILKSEKRKLQHLDMRLYEIKNFKEKAKEWITHLECPKDILLLEKEERKRFYRDMIHCIQVDSWEYHIVFKHPFMLIQEVHQNSETV, MGSDKIHHHHHHMVNDMQERQNRYWQLLHQPDRLLLLHQASSVEQFVTLMGDWLAWPELTLDQMLDFVHMQRWEDFTPKLALFSQAWLPYRYCSQSKEVYWIPAFNQLSKPFLEDDISDIRLGLLAIFIQPKTLLKSLLTQCDSVPEIHPCLMIFHWSRCGSTLVSSSFSKLNDCLVISESMLCSDIMRDDFWSQEVKVKLVDLCLRLQGRFRHGERHLVVKWNAWDLAYWPMLLALYPQSRVLCLIRNPKDILASHQRLAGRHMVEGQGLLSTEWHIQQIETVSTTFSLNKFRISVLQHLAQLTHALLNSNRAILLDYQQVKDFHPTTLSTILGRPLSMDEIECWQDHWCFDAKQQGQVFTPAVSNQPVPLRELQSPSWQQLFMTYNQLLQRLYWDKKHDV, MGSDKIHHHHHHMVNNVDVYYEGWGERWQWGRLASSTALTGRPLIMFEYSEEAIRRGLELSSLRLPLNGPRLSRGFPSYQLGLPGPVYDALPDGWGMLLMDRLFRLRGLNTARIGPLERLTYIGSNAMGAMSFEPSQPEASAVSEDIPLAQLSAEVQEVLDGEGGEFLQRLLQMGGSPQGARPKALLYCDPDTKTLTTSAASGLDAWLFKFPAKQEHPEVCAIEAVYAQCLRECHIHTPDTEYIELPNGQAAFASRRFDRQNGLRIPMQSLAAFTEANYQSPGSLDYANFLRATQICTNDVREKVLAFERVVFNVIFNNRDDHTKNFAYIMSSSGQWKLAPAYDVTYCEGPGGYHQMDVMGEALEISRELIHRLGVQEADLTSSQVDIIIEQYGEVAASFAKRAAGMFPGCITQDTLRTIQDRINDNIRCLQKR, MGSDKIHHHHHHMVNSEQALHQHDPAPILQLDKVSKSFGPVNVINQVSIDVRPGRVLALLGENGAGKSTLIKMMSGVYQPDGGQILVDGKPTTLPDTKTAESFGIATIHQELNLVPTMTVAENVMLGRTPRKWGLVNFKHLRRQAQAALDLIGVDVDLNAQVGSLGIARQQMVEIAKALSMNARILILDEPTAALTGREIDQLFKVVDQLKEKGVAMVFISHHLDEIARIGDTVSVLRDGQFIAELPADTDEDELVRLMVGRSIENQYPRSAPEIGQPLLEVKNLNAEGRFTDISLTVRAGEVVGLAGLVGAGRTEVVRSIAGVDKVDSGEVIVAGKKLRGGDISEAIKNGIGHIPEDRKAQGLVLGSSVEDNLGLATLASTARAGLVDRSGQHKRAAEVAEKLRIRMASLKQPISDLSGGNQQKAVFGRWVLAGSNVLLLDEPTRGVDVGAKVEIYNIINEMTEKGGAVLMVSSELPEVLGMADRILVMSGGRIAGELPAKGTTQDDVMALAVSQVDDSITEEAAAEIENTKEDR, MGSDKIHHHHHHMVNSSGLLAKLYNAFNPFEPLPAGDPKYVDCQDVRGDADIEQELGNRMRLADTNTCQLYSGHRGAGKSTELLRLKKYLENREFYVVYFAADEEDIDSEDAQYTDILLACTRRLLKDLKGIASPRPILDWLKGRWEDLKDLAQTPIEFESLGVEAQLTQFAKLTANLRAVPELRQKIRQKIDPYTVTLIQVLNEFLVDAKQHLPNGYKKLAVIVDNLDRMVLVKDAERTNYEEVFLDRSEQLQALDCHLIYTVPISMVYSTRATDLRDIYGDPQILPMIMVKTFEGNVYQPGLEKVKEVIKKRVRQIAPELSLETEIFDSPQTLDRLCLMSGGHVRNLLLLTQDAIGRSEDLPVSEKAVRRAITQARDTYRRAVENHQWCLLAEVSCSKRIINDDLYRSLMYNRCLLEYRYLDDDGEMQRWYDIHPLIQGIPEFKEAVAKLS, MGSDKIHHHHHHMVQHLVDLLDTWLPSYQEDWVLAVLTQVEGSSYRKPGAIMLFHPMGKSLGMLSGGCLEADLRRHAQRAIQTQQVIQLTYDATDESDTSYQLGCGGIVNIMMVSLNKANNYLGLVSVHDALMRGDRGTYQLEIVADGVSSHQISGHFVEASSDAAPITLNTKTLKVTEQHKTLLQIPLRPPVHIGIFGGGLDAKPIAQMAQTMGWKVTIFDERTAYARTYDFPGCHIMKHPTPSISTDLLSGLDAAFIMSHNLQIDAKTLKTLQPLPLAYISLLGPVHRRDKVLDMAELSLKDFSGYFSAPAGLALGGELPGSVALSILSQCHGVLYNSKLTSLDSVML, MGSDKIHHHHHHMVQLIKKYEDLLCLLDELIKNESTFRWDEFYLERERDVPFFVLAPDEQLVEYVCTGLIESGKVLELGCGPGRNAIYLAENHFEVDVVDLSQKAIDWAMDRANERKASIRFIRENIFNLNVNKASYDLVYDSGCFHHIPPHRRMDYIHLVTTALKPGGHFGLTCFIENGPLGGAAISDLDVYRQQSLQGGLGFTEQKLIQIFDDFAVIEIRKMKEYPNDSSRFGVNGLLTALFQKKKVEKVK, MGSDKIHHHHHHMVSKLLALEAYPKLKDIDFRLLRAVELNMRHHKWVPLEDIARFARMDLESASYRLGKLDKLGLVIRRSDIGYIGYQLTIHGYDALAIRAFAKKGVIEAISTTHIGVGKDADVYVAITPQGEKVAIKFNRIGERTSARKAYYHSDVFADKHHKSWLYVSRLIAKKEHEALVLLSSFAKVPKPIAWNRHAIVMEFIDGVELAELRDTDLTKEEAEEILGKVLDEYEKIVKFGIVHGDMSEFNIVITKDNDILIIDWAQYLTCANPESLGLLKRDISVLLNAFRRRWGVKRDFEEEWKRFYEAWQIGRREKEES, MGSDKIHHHHHHMVSKYHEIFLNIIQQIEDGQLKRGDKLPSIRQLSQDFHCSKDTVQKALSELKYQKYIYPILKSGYYVFEDNHEEEILPPISPSNYHNIAYEDFRTCMNETLVGREDYLFNYYHQEEGLEELTQSLQALFVDEAIYSKKENIVVTSGSQQALYILSQMTFPNQKEIILLEQPTYHRMNTLVKSQNLPYLTIERGFDGLDFNRLEEIFKQEKIKFFYTIPRLSNPLGLSYSHKEKQTLVELAHKYDVYIIEDDYMADFDRASNVSLHYLDTNDRIIYLKSFSMSLFPALRLGSLILPKKLLKKFLDYKNLIDYDTNLIMQKALSLYIDNGMFAKNKKRLKQMYYQKTSELAKEFSTFTLKLPHHIFQDSLILQLPTKVNLALLKYRLNSPNFLEKNYISTCPYHFIQLQAGENWQNLLTIFE, MGSDKIHHHHHHMVSYKILSVANKLKNIRDKYGLSQEDLAGNEITRNLISQIEHNKANLTRSAAEIMLKNLKKICDKKNVQVDEDINYLMEDEKSQAIKVLDKYIDDLRDLTIYKDNVFINKLREVEDFLVTWDFRDKKITIFELAGDYFSSTNDFYNASLYYEKAKALIDINIYSDNIVHILRKLSMTYYYMLRYQDDINCCEFALKQFKNMDEEYRCIFLFNSSLCYGQLKKYDLALKRLNEVESIIKNIDQNKYYEVLIQKAICYQWMKEYQKSLDIYNKLLESIDKSDYEKYLFILVNSSDIYVENSNFEKAESNLRIILENINNLNESSTLLPSTYLEMSRILKKLGYTKDAELYCLKSLNYAKRNTHYYLVNDIYGELLDIYKTLNVPEKVQTIKDEFFSNSSRDKNLNSKLMFKLLDFYFATNDIHSIKEIYDFSKNFIQERMINLCY, MGSDKIHHHHHHMVTGASGFVGSALCCELARTGYAVIAVVRRVVERIPSVTYIEADLTDPATFAGEFPTVDCIIHLAGRAHILTDKVADPLAAFREVNRDATVRLATRALEAGVKRFVFVSSIGVNGNSTRQQAFNEDSPAGPHAPYAISKYEAEQELGTLLRGKGMELVVVRPPLIYANDAPGNFGRLLKLVASGLPLPLDGVRNARSLVSRRNIVGFLSLCAEHPDAAGELFLVADGEDVSIAQMIEALSRGMGRRPALFTFPAVLLKLVMCLLGKASMHEQLCGSLQVDASKARRLLGWVPVETIGAGLQAAGREYILRQRERRK
